Source: patent publication US20090304717A1

Columns and labels:
[1] = biological target: PSMA (prostate-specific membrane antigen) (UniProt Q04609); assay: flow; conditions: LNCaP cells, on ice, sigmoidal fit
[2] = biological target: PSMA (prostate-specific membrane antigen) (UniProt Q04609); assay: cell_activity; conditions: cytotoxicity on LNCaP, no effect on PSMA-negative MCF-7
[3] = 2'-F pyrimidines (library chemistry)

Chain of UniProt Q04609 (Q04609 whole entry): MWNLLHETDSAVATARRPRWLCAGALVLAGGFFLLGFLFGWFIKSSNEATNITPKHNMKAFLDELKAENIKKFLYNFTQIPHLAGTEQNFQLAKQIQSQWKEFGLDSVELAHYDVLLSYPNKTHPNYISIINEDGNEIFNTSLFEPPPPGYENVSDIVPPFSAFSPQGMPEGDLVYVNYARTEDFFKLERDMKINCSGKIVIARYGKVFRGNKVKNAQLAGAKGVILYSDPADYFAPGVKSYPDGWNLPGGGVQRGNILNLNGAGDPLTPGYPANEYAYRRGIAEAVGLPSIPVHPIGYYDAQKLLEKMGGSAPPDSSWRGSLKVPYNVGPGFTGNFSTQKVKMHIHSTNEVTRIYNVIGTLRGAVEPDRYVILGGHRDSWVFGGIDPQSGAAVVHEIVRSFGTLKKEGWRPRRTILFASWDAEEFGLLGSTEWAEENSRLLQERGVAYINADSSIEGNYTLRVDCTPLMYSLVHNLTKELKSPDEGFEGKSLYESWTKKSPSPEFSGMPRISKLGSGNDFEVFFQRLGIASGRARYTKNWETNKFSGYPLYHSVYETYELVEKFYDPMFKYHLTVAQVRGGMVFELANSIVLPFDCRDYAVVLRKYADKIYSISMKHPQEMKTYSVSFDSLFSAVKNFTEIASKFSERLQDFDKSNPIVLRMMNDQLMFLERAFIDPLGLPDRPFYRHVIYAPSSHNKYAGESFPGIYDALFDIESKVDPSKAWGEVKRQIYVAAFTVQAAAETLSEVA

GGGAGGACGAUGCGGAUCAGCCAUGUUUACGUCACUCCUUGUCAAUCCUCAUCGGCAGCGCCAUCAUGGACAAGAAUUGAAGCUUCUUCUUGUCCAUGAUGGCGCGG [xPSM-A-3-siEEF2]
Kd [1, 3]: 26.7 nM | EC50 [2, 3]: 1510 nM

GGGAGGACGAUGCGGAUCAGCCAUGUUUACGUCACUCCUUGUCAAUCCUCAUCGGCUAAAAAUUGCGCCAUCAUGGACAAGAAUU / GGGAGGACGAUGCGGAUCAGCCAUGUUUACGUCACUCCUUGUCAAUCCUCAUCGGCAAAAAUUCUUGUCCAUGAUGGCGCGG [PSMA biv anneal siEEF2 (1+2 annealed)]
Kd ([1]; transcribed with Durascribe T7 kit (kit implies 2'-F pyrimidines)): 46.5 nM

GGGAGGACGAUGCGGAUCAGCCAUGUUUACGUCACUCCUUGUCAAUCCUCAUCGGCUAAAAAUUGCGCCAUCAUGGACAAGAAUUAAUUAAGGGAGGACGAUGCGGAUCAGCCAUGUUUACGUCACUCCUUGUCAAUCCUCAUCGGCAAAAAUUCUUGUCCAUGAUGGCGCGGGAGCUCGAAUU [PSMB1-siEEF2]
EC50 ([2]; transcribed with Durascribe T7 kit (kit implies 2'-F pyrimidines), +/-0.1246): 517 nM

GGGAGGACGAUGCGGAUCAGCCAUGUUUACGUCACUCCUUGUCAAUCCUCAUCGGCUAAAAUUAGGCCUAUCUGCCCGUCAAUUAAAAAUUGGGAGGACGAUGCGGAUCAGCCAUGUUUACGUCACUCCUUGUCAAUCCUCAUCGGCAGCGCCAUCAUGGACAAGAAUUGAAGCUUCUUCUUGUCCAUGAUGGCGCGGAAAAAAAUUGACGGGCAGAUAGGCCUUUGAGCUCGAAUU [PSMB2-siEEF2]
EC50 ([2]; transcribed with Durascribe T7 kit (kit implies 2'-F pyrimidines), +/-0.01282): 212 nM
